T1: SYNJ2BP, P57105
T1 sequence (P57105 8-110, limits assumed, looked up): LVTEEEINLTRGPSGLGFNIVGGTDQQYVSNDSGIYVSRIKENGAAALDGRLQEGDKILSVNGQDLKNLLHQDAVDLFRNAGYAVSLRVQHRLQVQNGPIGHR

T2: DFNB31_2, Q9P202
T2 sequence (Q9P202 274-371, limits assumed, looked up): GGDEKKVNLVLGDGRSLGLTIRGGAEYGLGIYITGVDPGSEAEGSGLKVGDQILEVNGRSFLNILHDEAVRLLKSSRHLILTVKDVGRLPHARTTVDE

T3: LRRC7, Q96NW7
T3 sequence (Q96NW7 1440-1537, limits assumed, looked up): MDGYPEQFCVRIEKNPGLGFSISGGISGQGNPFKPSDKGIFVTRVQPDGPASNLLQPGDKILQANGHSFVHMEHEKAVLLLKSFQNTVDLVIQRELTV

T4: MPDZ_10, O75970
T4 sequence (O75970 1624-1722, limits assumed, looked up): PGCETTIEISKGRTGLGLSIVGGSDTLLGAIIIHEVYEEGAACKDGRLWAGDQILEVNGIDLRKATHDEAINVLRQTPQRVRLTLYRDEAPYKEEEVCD

T5: GRIP1_7, Q9Y3R0
T5 sequence (Q9Y3R0 999-1096, limits assumed, looked up): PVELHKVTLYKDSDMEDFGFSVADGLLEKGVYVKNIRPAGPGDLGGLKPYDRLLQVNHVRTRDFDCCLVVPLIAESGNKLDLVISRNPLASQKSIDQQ

T6: APBA2_1, Q99767
T6 sequence (Q99767 563-664, limits assumed, looked up): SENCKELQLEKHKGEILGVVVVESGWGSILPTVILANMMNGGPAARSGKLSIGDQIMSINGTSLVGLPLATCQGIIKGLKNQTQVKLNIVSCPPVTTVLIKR

T7: MPDZ_12, O75970
T7 sequence (O75970 1857-1958, limits assumed, looked up): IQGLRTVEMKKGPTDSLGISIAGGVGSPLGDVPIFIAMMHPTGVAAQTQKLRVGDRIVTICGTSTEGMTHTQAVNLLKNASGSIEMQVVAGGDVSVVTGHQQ

T8: RHPN1, Q8TCX5
T8 sequence (Q8TCX5 508-602, limits assumed, looked up): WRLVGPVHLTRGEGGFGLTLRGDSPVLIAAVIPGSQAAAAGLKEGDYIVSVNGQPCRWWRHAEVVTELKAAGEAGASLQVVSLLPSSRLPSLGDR

T9: SNTA1, Q13424
T9 sequence (Q13424 82-180, limits assumed, looked up): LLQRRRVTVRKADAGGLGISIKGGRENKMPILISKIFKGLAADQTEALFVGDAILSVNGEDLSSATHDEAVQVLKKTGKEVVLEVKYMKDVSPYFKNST

T10: NHERF3_1, Q5T2W1
T10 sequence (Q5T2W1 4-100, limits assumed, looked up): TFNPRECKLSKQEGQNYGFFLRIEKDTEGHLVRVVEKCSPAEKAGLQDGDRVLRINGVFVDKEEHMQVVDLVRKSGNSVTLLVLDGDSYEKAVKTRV

T11: PTPN13_1, Q12923
T11 sequence (Q12923 1088-1188, limits assumed, looked up): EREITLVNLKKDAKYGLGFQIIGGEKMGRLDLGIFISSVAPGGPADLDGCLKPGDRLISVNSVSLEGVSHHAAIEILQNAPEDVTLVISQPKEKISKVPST

T12: APBA3_1, O96018
T12 sequence (O96018 389-490, limits assumed, looked up): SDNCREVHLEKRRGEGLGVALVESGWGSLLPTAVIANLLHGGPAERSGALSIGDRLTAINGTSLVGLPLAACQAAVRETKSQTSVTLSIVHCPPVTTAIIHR

T13: TJP3_3, O95049
T13 sequence (O95049 375-456, limits assumed, looked up): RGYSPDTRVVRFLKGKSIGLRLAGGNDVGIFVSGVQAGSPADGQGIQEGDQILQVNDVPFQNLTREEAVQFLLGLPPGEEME


What was measured:
Assay in all cases: holdup assay
Set-up in all cases: key: below the threshold = too weak to quantify, mostly under pKd 3.1 to 4
Conditions in all cases: plain residues with an end cap or a label only (N-terminal biotin on a linker: ado-ado)
[1] = target: MAGI1_2, Q96QZ7
[2] = target: T1, SYNJ2BP, P57105
[3] = target: T2, DFNB31_2, Q9P202
[4] = target: T3, LRRC7, Q96NW7
[5] = target: T4, MPDZ_10, O75970
[6] = target: T5, GRIP1_7, Q9Y3R0
[7] = target: PDZRN4_1, Q6ZMN7
[8] = target: LNX1_3, Q8TBB1
[9] = target: MAGI2_2, Q86UL8
[10] = target: MAGI2_4, Q86UL8
[11] = target: T6, APBA2_1, Q99767
[12] = target: T7, MPDZ_12, O75970
[13] = target: DLG1_1, Q12959
[14] = target: T8, RHPN1, Q8TCX5
[15] = target: T9, SNTA1, Q13424
[16] = target: DLG1_3, Q12959
[17] = target: DLG1_2, Q12959
[18] = target: T10, NHERF3_1, Q5T2W1
[19] = target: GRIP2_7, Q9C0E4
[20] = target: T11, PTPN13_1, Q12923
[21] = target: NHERF4_4, Q86UT5
[22] = target: T12, APBA3_1, O96018
[23] = target: CASK, O14936
[24] = target: Inadl_5, Q8NI35
[25] = target: T13, TJP3_3, O95049

Sequence of CASK, O14936 (O14936 487-570): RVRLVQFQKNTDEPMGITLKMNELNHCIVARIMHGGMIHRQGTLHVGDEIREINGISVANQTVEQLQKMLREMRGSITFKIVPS
Sequence of MAGI2_2, Q86UL8 (Q86UL8 410-522): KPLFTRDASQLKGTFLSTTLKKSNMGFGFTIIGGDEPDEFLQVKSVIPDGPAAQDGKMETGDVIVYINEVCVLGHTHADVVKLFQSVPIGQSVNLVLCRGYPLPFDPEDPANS
Sequence of LNX1_3, Q8TBB1 (Q8TBB1 500-596): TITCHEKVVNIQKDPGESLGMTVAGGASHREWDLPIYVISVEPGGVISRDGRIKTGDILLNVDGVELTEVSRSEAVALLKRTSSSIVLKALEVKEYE
Sequence of GRIP2_7, Q9C0E4 (Q9C0E4 934-1023): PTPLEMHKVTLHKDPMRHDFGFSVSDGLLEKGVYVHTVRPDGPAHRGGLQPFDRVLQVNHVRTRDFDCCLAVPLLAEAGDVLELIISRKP
Sequence of MAGI1_2, Q96QZ7 (Q96QZ7 456-580): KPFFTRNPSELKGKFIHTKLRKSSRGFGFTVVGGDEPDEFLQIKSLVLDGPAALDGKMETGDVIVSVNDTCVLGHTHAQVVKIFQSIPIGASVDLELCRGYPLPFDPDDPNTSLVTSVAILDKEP
Sequence of PDZRN4_1, Q6ZMN7 (Q6ZMN7 213-318): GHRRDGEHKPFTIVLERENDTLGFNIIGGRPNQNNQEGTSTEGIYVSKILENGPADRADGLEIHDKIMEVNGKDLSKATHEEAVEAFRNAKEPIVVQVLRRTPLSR
Sequence of Inadl_5, Q8NI35 (Q8NI35 673-780): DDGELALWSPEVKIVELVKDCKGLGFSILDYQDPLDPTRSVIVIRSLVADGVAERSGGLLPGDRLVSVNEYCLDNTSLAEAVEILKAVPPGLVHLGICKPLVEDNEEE
Sequence of MAGI2_4, Q86UL8 (Q86UL8 772-865): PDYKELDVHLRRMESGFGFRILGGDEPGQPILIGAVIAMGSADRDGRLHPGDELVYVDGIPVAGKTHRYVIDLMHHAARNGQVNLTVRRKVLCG
Sequence of NHERF4_4, Q86UT5 (Q86UT5 464-550): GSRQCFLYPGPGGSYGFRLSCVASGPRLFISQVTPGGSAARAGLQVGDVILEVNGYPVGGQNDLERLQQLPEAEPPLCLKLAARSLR

Binder	pKd [1]	pKd [2]	pKd [3]	pKd [4]	pKd [5]	pKd [6]	pKd [7]	pKd [8]	pKd [9]	pKd [10]	pKd [11]	pKd [12]	pKd [13]	pKd [14]	pKd [15]	pKd [16]	pKd [17]	pKd [18]	pKd [19]	pKd [20]	other results
DDASLPVSDV [PLEKHA1, Q9HB21]	below the threshold	3.59	below the threshold	below the threshold	3.91	below the threshold	below the threshold	below the threshold	below the threshold	below the threshold	below the threshold	below the threshold	below the threshold	4.46	4.44	below the threshold	below the threshold	below the threshold	below the threshold	below the threshold	pKd [21]: below the threshold; pKd [22]: below the threshold; pKd [23]: below the threshold; pKd [24]: below the threshold; pKd [25]: below the threshold
ELSATVTTDC [TRIP6, Q15654]	below the threshold	4.68	below the threshold	below the threshold	below the threshold	below the threshold	below the threshold	below the threshold	below the threshold	below the threshold	below the threshold	below the threshold	below the threshold	4.32	3.92	4.02	3.67	below the threshold	below the threshold	below the threshold	pKd [21]: below the threshold; pKd [22]: below the threshold; pKd [23]: below the threshold; pKd [24]: below the threshold; pKd [25]: below the threshold

Source: article PMC9482650, “Quantitative fragmentomics allow affinity mapping of interactomes” (Nature Communications, 2022)
